The values that follow are results of earlier work, collected in US20240269237A1, “PHARMACEUTICAL COMPOSITION AND KIT COMPRISING AN IMMUNOMODULATORY SUBSTANCE FOR TREATING DISEASES” (ellennbe GmbH, priority 2021, published 2024).

This series relates to ankylosing spondylitis (Bechterew's disease). Particulars: Patient 11, history; within half a year the biologics lost their effect.

B1: certolizumab pegol (antibody, chains of the INN, looked up, V domains shown)
VH: EVQLVESGGGLVQPGGSLRLSCAASGYVFTDYGMNWVRQAPGKGLEWMGWINTYIGEPIYADSVKGRFTFSLDTSKSTAYLQMNSLRAEDTAVYYCARGYRSYAMDYWGQGTLVTVSS
VL: DIQMTQSPSSLSASVGDRVTITCKASQNVGTNVAWYQQKPGKAPKALIYSASFLYSGVPYRFSGSGSGTDFTLTISSLQPEDFATYYCQQYNIYPLTFGQGTKVEIK
Consider B1, for which the “effect of earlier treatment with biologics” value is recorded as “little effect from the outset”.
